Measured values published in US20060134756A1 (ZymoGenetics, published 2006).

Target: T1, CRF2-4/IL-22RA heterodimeric receptor on BaF3 cells (BaF3/CRF2-4/IL-22RA cells) (human, UniProt Q08334 20-325, limits assumed)
T1 sequence 1: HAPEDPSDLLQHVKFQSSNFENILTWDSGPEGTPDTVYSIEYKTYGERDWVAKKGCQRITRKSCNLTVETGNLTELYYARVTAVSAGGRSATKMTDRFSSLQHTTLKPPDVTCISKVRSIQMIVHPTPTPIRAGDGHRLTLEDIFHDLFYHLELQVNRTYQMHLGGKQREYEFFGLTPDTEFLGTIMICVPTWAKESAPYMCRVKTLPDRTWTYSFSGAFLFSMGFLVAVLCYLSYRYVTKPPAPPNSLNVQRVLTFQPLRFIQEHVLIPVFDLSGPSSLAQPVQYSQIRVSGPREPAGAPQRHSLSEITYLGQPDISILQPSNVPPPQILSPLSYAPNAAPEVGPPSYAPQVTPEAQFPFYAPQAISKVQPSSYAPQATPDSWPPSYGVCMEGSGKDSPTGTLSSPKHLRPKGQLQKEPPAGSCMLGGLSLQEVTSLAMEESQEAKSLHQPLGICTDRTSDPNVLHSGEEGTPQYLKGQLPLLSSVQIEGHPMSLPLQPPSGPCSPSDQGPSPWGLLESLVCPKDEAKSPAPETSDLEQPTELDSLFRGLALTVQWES
T1 sequence 2: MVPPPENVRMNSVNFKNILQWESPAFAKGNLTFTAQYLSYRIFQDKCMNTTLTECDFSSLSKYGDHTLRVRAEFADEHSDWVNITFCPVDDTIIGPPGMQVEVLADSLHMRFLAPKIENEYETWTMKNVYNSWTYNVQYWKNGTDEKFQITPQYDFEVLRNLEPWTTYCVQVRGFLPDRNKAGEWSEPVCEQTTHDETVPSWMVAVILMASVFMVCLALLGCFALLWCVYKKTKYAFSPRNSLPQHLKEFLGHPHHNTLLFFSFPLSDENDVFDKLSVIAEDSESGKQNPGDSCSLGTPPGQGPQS
Experiment: cell-based or functional assay

B1: IL-22-CEE (ligand)
chain: LLLALLVQGGAAAPISSHCRLDKSNFQQPYITNRTFMLAKEASLADNNTDVRLIGEKLFHGVSMSERCYLMKQVLNFTLEEVLFPQSDRFQPYMQEVVPFLARLSNRLSTCHIEGDDLHIQRNVQKLKDTVKKLGESGEIKAIGELEYMPME
  proliferation of BaF3/CRF2-4/IL-22RA cells (Alamar Blue), IL-22-CEE at 0.06 ng/ml: ~2 fold over background
